# T1: G9a and GLP (Homo sapiens, UniProt Q96KQ7+Q9H9B1)
# T1 sequence (Q96KQ7 2-1210 limits assumed): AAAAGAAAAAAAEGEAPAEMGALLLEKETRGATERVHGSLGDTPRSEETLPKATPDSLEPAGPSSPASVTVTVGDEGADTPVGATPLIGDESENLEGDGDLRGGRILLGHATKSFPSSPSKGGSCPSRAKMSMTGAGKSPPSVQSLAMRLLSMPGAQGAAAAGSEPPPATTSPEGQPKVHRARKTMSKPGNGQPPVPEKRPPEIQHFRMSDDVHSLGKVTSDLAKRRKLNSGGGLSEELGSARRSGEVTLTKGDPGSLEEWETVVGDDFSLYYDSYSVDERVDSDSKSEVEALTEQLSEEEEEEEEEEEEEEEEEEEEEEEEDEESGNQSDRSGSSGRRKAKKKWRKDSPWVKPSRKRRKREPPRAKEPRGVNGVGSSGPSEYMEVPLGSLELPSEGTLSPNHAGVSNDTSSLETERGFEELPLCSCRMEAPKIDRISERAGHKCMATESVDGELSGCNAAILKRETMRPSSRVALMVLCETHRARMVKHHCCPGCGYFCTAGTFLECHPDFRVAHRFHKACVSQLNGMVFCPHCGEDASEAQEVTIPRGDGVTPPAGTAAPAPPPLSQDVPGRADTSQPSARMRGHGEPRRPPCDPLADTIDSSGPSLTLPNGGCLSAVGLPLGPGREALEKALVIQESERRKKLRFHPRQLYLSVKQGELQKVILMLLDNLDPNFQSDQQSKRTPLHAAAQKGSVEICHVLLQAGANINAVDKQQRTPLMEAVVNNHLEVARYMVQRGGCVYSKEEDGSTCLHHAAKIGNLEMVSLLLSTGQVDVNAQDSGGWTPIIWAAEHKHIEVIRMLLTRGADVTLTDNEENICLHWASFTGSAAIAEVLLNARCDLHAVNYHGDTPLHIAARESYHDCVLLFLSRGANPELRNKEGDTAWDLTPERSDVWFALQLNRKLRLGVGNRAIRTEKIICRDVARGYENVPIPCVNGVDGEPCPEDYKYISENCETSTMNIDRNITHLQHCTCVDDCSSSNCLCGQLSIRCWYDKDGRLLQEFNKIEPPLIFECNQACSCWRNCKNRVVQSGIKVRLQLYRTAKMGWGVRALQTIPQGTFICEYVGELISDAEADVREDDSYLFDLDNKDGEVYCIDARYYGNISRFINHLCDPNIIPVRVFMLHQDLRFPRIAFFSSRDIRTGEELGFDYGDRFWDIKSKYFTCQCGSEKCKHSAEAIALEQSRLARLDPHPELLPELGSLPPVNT
# T1 sequence (Q9H9B1 2-1298 limits assumed): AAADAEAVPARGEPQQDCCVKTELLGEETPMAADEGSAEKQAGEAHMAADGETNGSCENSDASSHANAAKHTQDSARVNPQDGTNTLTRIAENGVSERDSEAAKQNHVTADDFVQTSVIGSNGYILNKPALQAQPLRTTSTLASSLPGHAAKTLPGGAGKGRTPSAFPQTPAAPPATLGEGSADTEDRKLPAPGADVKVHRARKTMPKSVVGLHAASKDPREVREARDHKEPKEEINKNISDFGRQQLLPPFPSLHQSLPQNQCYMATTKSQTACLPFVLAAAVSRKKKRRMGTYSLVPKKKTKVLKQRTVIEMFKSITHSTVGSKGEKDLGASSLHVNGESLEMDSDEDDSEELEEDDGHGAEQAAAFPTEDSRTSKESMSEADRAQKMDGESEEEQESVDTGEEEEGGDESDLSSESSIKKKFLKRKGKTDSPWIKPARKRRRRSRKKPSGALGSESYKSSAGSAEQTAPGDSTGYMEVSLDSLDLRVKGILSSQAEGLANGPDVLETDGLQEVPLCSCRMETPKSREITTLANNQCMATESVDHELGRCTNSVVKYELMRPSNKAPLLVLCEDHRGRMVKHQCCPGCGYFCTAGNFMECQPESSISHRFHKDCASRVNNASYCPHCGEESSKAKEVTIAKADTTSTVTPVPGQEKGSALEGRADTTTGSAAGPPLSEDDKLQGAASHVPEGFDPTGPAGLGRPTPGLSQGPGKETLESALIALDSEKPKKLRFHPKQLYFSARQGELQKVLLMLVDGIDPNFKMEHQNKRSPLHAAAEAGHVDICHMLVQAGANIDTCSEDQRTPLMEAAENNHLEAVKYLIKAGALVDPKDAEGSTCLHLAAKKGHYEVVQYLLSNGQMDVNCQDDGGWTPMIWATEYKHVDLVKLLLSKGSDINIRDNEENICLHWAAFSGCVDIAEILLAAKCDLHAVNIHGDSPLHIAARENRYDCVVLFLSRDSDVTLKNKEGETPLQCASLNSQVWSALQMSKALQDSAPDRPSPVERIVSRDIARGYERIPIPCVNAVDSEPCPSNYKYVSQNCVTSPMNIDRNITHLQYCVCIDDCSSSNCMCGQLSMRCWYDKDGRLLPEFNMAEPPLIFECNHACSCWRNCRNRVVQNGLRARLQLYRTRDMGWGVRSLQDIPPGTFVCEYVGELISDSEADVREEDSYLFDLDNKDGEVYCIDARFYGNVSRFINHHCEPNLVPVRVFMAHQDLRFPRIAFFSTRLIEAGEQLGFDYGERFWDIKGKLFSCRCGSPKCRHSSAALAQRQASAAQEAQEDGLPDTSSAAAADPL
# How the values were obtained:
# [1] = test system: 3×MBT domain of L3MBTL1; assay: Triple SILAC pull-down, 3xMBT/3xMBTD355N ratio (cytoplasmic, nuclear and chromatin fractions of 293T cells); format: binding, human; conditions: SILAC ratio, pull-down 3xMBT vs 3xMBTD355N; for 3xMBT/D355N UNC Heavy: experiment with UNC0638 in heavy SILAC media; for 3xMBT/D355N UNC Light: experiment with UNC0638 in light SILAC media;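 as to all read-outs here: proteins quantified with MaxQuant, requiring at least two unique peptides and quantification in both label directions, normalized to the mean of proteins from a digested loading control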
# [2] = target: T1, G9a and GLP; assay: Triple SILAC pull-down after UNC0638 treatment of 293T cells, DMSO/UNC0638 ratio of protein captured by 3×MBT; format: cell-based; parameters: endogenous in cells; host or cells: HEK 293T; conditions: for Relative to UNC0638 UNC Heavy / Relative to UNC0638 UNC Light: SILAC ratio DMSO/UNC0638 of protein pulled down with 3xMBT; for Relative to UNC0638 UNC Heavy: UNC0638 in heavy SILAC media; for Relative to UNC0638 UNC Light: UNC0638 in light SILAC media; for Relative to UNC0638 Average: average of UNC Light and UNC Heavy experiments;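 as to all read-outs here: mass spectrometry (Q-Exactive) SILAC quantitation, DMSO/UNC0638 ratio computed after subtracting 3×MBTD355N mutant pull-down background, only proteins with at least twofold 3×MBT over mutant signal considered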
Molecule,Relative to UNC0638 UNC Heavy [2] [log base 2],Relative to UNC0638 UNC Light [2] [log base 2],Relative to UNC0638 Average [2] [log base 2],3xMBT/D355N UNC Heavy [1] [log base 2],3xMBT/D355N UNC Light [1] [log base 2]
"HNRNPH1 (protein, UniProt P31943 1-449, looked up) Heterogeneous nuclear …: MMLGTEGGEGFVVKVRGLPWSCSADEVQRFFSDCKIQNGAQGIRFIYTREGRPSGEAFVELESEDEVKLALKKDRETMGHRYVEVFKSNNVEMDWVLKHTGPNSPDTANDGFVRLRGLPFGCSKEEIVQFFSGLEIVPNGITLPVDFQGRSTGEAFVQFASQEIAEKALKKHKERIGHRYIEIFKSSRAEVRTHYDPPRKLMAMQRPGPYDRPGAGRGYNSIGRGAGFERMRRGAYGGGYGGYDDYNGYNDGYGFGSDRFGRDLNYCFSGMSDHRYGDGGSTFQSTTGHCVHMRGLPYRATENDIYNFFSPLNPVRVHIEIGPDGRVTGEADVEFATHEDAVAAMSKDKANMQHRYVELFLNSTAGASGGAYEHRYVELFLNSTAGASGGAYGSQMMGGMGLSNQSSYGGPASQQLSGGYGGGYGGQSSMSGYDQVLQENSSDFQSNIA",0.24,0.19,0.21,1.85,2.27
"CPSF6 (protein, UniProt Q16630 1-551, looked up) Cleavage and polyadenylation …: MADGVDHIDIYADVGEEFNQEAEYGGHDQIDLYDDVISPSANNGDAPEDRDYMDTLPPTVGDDVGKGAAPNVVYTYTGKRIALYIGNLTWWTTDEDLTEAVHSLGVNDILEIKFFENRANGQSKGFALVGVGSEASSKKLMDLLPKRELHGQNPVVTPCNKQFLSQFEMQSRKTTQSGQMSGEGKAGPPGGSSRAAFPQGGRGRGRFPGAVPGGDRFPGPAGPGGPPPPFPAGQTPPRPPLGPPGPPGPPGPPPPGQVLPPPLAGPPNRGDRPPPPVLFPGQPFGQPPLGPLPPGPPPPVPGYGPPPGPPPPQQGPPPPPGPFPPRPPGPLGPPLTLAPPPHLPGPPPGAPPPAPHVNPAFFPPPTNSGMPTSDSRGPPPTDPYGRPPPYDRGDYGPPGREMDTARTPLSEAEFEEIMNRNRAISSSAISRAVSDASAGDYGSAIETLVTAISLIKQSKVSADDRCKVLISSLQDCLHGIESKSYGSGSRRERSRERDHSRSREKSRRHKSRSRDRHDDYYRERSRERERHRDRDRDRDRERDREREYRHR",0.30,0.09,0.20,1.89,3.10

# Further lines, with some results ahead:
Relative to UNC0638 UNC Heavy [2] [log base 2],Relative to UNC0638 UNC Light [2] [log base 2],Relative to UNC0638 Average [2] [log base 2],Molecule,3xMBT/D355N UNC Heavy [1] [log base 2],3xMBT/D355N UNC Light [1] [log base 2]
0.25,0.17,0.21,"ORC3 (protein, UniProt Q9UBD5 1-711, looked up) Origin recognition complex …: MATSSMSKGCFVFKPNSKKRKISLPIEDYFNKGKNEPEDSKLRFETYQLIWQQMKSENERLQEELNKNLFDNLIEFLQKSHSGFQKNSRDLGGQIKLREIPTAALVLGVNVTDHDLTFGSLTEALQNNVTPYVVSLQAKDCPDMKHFLQKLISQLMDCCVDIKSKEEESVHVTQRKTHYSMDSLSSWYMTVTQKTDPKMLSKKRTTSSQWQSPPVVVILKDMESFATKVLQDFIIISSQHLHEFPLILIFGIATSPIIIHRLLPHAVSSLLCIELFQSLSCKEHLTTVLDKLLLTTQFPFKINEKVLQVLTNIFLYHDFSVQNFIKGLQLSLLEHFYSQPLSVLCCNLPEAKRRINFLSNNQCENIRRLPSFRRYVEKQASEKQVALLTNERYLKEETQLLLENLHVYHMNYFLVLRCLHKFTSSLPKYPLGRQIRELYCTCLEKNIWDSEEYASVLQLLRMLAKDELMTILEKCFKVFKSYCENHLGSTAKRIEEFLAQFQSLDETKEEEDASGSQPKGLQKTDLYHLQKSLLEMKELRRSKKQTKFEVLRENVVNFIDCLVREYLLPPETQPLHEVVYFSAAHALREHLNAAPRIALHTALNNPYYYLKNEALKSEEGCIPNIAPDICIAYKLHLECSRLINLVDWSEAFATVVTAAEKMDANSATSEEMNEIIHARFIRAVSELELLGFIKPTKQKTDHVARLTWGGC",1.54,2.54
0.12,0.31,0.21,"RALY (protein, UniProt Q9UKM9 2-306, looked up) RNA-binding protein Raly: SLKLQASNVTNKNDPKSINSRVFIGNLNTALVKKSDVETIFSKYGRVAGCSVHKGYAFVQYSNERHARAAVLGENGRVLAGQTLDINMAGEPKPDRPKGLKRAASAIYSGYIFDYDYYRDDFYDRLFDYRGRLSPVPVPRAVPVKRPRVTVPLVRRVKTNVPVKLFARSTAVTTSSAKIKLKSSELQAIKTELTQIKSNIDALLSRLEQIAAEQKANPDGKKKGDGGGAGGGGGGGGSGGGGSGGGGGGGSSRPPAPQENTTSEAGLPQGEARTRDDGDEEGLLTHSEEELEHSQDTDADDGALQ",1.15,3.37
–,4.14,4.14,"HPSE2 (protein, UniProt Q8WWQ2 42-592, looked up) Inactive heparanase-2: GDRRPLPVDRAAGLKEKTLILLDVSTKNPVRTVNENFLSLQLDPSIIHDGWLDFLSSKRLVTLARGLSPAFLRFGGKRTDFLQFQNLRNPAKSRGGPGPDYYLKNYEDDIVRSDVALDKQKGCKIAQHPDVMLELQREKAAQMHLVLLKEQFSNTYSNLILTARSLDKLYNFADCSGLHLIFALNALRRNPNNSWNSSSALSLLKYSASKKYNISWELGNEPNNYRTMHGRAVNGSQLGKDYIQLKSLLQPIRIYSRASLYGPNIGRPRKNVIALLDGFMKVAGSTVDAVTWQHCYIDGRVVKVMDFLKTRLLDTLSDQIRKIQKVVNTYTPGKKIWLEGVVTTSAGGTNNLSDSYAAGFLWLNTLGMLANQGIDVVIRHSFFDHGYNHLVDQNFNPLPDYWLSLLYKRLIGPKVLAVHVAGLQRKPRPGRVIRDKLRIYAHCTNHHNHNYVRGSITLFIINLHRSRKKIKLAGTLRDKLVHQYLLQPYGQEGLKSKSVQLNGQPLVMVDDGTLPELKPRPLRAGRTLVIPPVTMGFYVVKNVNALACRYR",−0.14,3.81
